Laboratory results from patent US20110311550A1 (Scripps Research, published 2011).

B1: MAb AR3C (antibody, V domains shown)
VH: LEQSGAEVKKPGSSVKVSCETSGGTLDNYALNWVRQAPGQGLEWIGGVVPLFGTTRNAQKFQGRVTISDDKSTGTGHMELRSLRSEDTAVYYCVRSVTPRYCGGGFCYGEFDYWGQGTLVTVSS
VL: ELTQSPATLSVSPGERATLSCRASQSVSSNLAWYQQKPGQAPRLLIYGASTRATGIPARFSGSGSGTEFTLTVSRLEPEDSAVYFCQQYYRSPLTFGGGTKVEIKR
notes: also called IgG1 of Fab H3
B2: N4 IgG (antibody, V domains shown)
VH: VQLLEQSGPEVKKPGDSLRISCKMSGDSLVTTWIGWVRQKPGQGLEWMGIINPGDSSTNIYPGDSATRYGPSFQGQVTISIDKSTSTAYLQWNNVKASDTGIYYCARHVPVPISGTFLWREREMHDFGYFDDWGQGTLVIVSS
VL: ELTLTQSPGTLSLSPGERATLSCRASQSVSNNYLAWYQQKPGQAPRLLIYGASSRATGIPDRFSGSGSGTGFTLIISRLEPEDFAVYYCQQYGSSSITFGQGTRLEIKR
notes: also called IgG N4
B3: MAb AR3D (antibody, V domains shown)
VH: LEQSGAEVKKPGSSVKVSCKASGDTFRSYVITWARQAPGQGLEWMGAIIPFFGTTNLAQKFQGRVTITADESTKTVYMDLSSLRSDDTAVYYCAKAGDLSVGGVLAGGVPHLRHFDPWGQGTLVTVSS
VL: ELTQSPGTLSLSPGERATLSCRAGQTVASNSLAWYQHKPGQAPRLLIYGASIRASGIPDRFSGSGSGTDFTLTISRLEPEDFAVYYCQQYGLSSTFGQGTRLEIKR
notes: also called IgG1 of Fab L4
B4: MAb AR1A (antibody, V domains shown)
VH: LEQSGAEVKKPGSSVKVSCRASGSPYSSYTITWVRQAPGQGLEWMGGIILMTGKANYAQKFQGRVTITADRATATAYMEMSSLTSDDTAIYYCARDPYVYAGDDVRSLSRWGQGTPVIVSS
VL: not shown
notes: also called IgG1 of Fab B2
B5: MAb AR2A (antibody, V domains shown)
VH: LEQSGAEMKKPGASLKVSCKTSGYTFDDYGVTWVRQAPGQGLEWMGWISAYSGNTFYARKFQGRVTMTTDPSTRTAYMELRSLRSDDTAVYFCARDRGLAINGVVFPYFGLDVWGQGTTVTVSS
VL: ELTQSPVSLPVTPGEPASISCRSSQSLLHSNGNHYLDWYLQKPGQSPQLLMYLGSNRASGVPDRFSGSGSGTDFTLKISRVEAEDVGVYYCMQGLQTPWTFGQGTKVEIKR
notes: also called IgG1 of Fab G
B6: MAb AR1B (antibody, V domains shown)
VH: LESGGGLVQPGGSLRLSCEASGYYFSSFAMSWVRQTPGKGLEWVSSIAGGTLGRTSYRDSVKGRFTISRDNSKNTVFLHMNNLRPEDTAVYYCAKDPLLFAGGPNWFDHWGQGTLVTVSS
VL: not shown
notes: also called IgG1 of Fab D1

Columns and labels:
[1] = target: T1, vaccinia-expressed E1E2 complex, isolate HCV-1 (genotype 1a) (hepatitis C virus, isolate HCV-1, UniProt P26664 192-383; P26664 384-746); experiment: competition ELISA on HCV-1 E1E2; competitor m21 (CBH-5)
[2] = target: T1, vaccinia-expressed E1E2 complex, …; experiment: competition ELISA on HCV-1 E1E2; competitor m5 (AR3B)
[3] = target: T1, vaccinia-expressed E1E2 complex, …; experiment: competition ELISA on HCV-1 E1E2; competitor m29 (2/69A)
[4] = target: T1, vaccinia-expressed E1E2 complex, …; experiment: competition ELISA on HCV-1 E1E2; competitor m31 (11/20)
[5] = target: T1, vaccinia-expressed E1E2 complex, …; experiment: competition ELISA on HCV-1 E1E2; competitor m22 (CBH-7)
[6] = target: T2, E1E2 complex of HCV isolate H77 (genotype 1a), wild type (HCV isolate H77, UniProt P27958 192-383; P27958 384-746); experiment: competition ELISA on H77 E1E2; competitor m41 (Fab O1)
[7] = target: T2, E1E2 complex of HCV isolate H77 …; experiment: competition ELISA on H77 E1E2; competitor m37 (Fab N1)
[8] = target: E1E2 complex (H77) with E1 mutation I212A (HCV genotype 1a, isolate H77, UniProt P27958 192-383; P27958 384-746); experiment: ELISA, lectin-captured E1E2 lysate, Ab 1 ug/ml;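 note: E1E2 captured on Galanthus nivalis lectin-coated plates, bound test antibody read out by an HRP-linked secondary antibody and TMB colour development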
[9] = target: E1E2 complex (H77) with E1 mutation P341A (HCV genotype 1a, isolate H77, UniProt P27958 192-383; P27958 384-746); experiment: ELISA, lectin-captured E1E2 lysate, Ab 1 ug/ml;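 note: E1E2 captured on Galanthus nivalis lectin-coated plates, bound test antibody read out by an HRP-linked secondary antibody and TMB colour development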
[10] = target: E1E2 complex (H77) with E1 mutation R195A (HCV genotype 1a, isolate H77, UniProt P27958 192-383; P27958 384-746); experiment: ELISA, lectin-captured E1E2 lysate, Ab 1 ug/ml;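 note: E1E2 captured on Galanthus nivalis lectin-coated plates, bound test antibody read out by an HRP-linked secondary antibody and TMB colour development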
[11] = target: E1E2 complex (H77) with E1 mutation P328A (HCV genotype 1a, isolate H77, UniProt P27958 192-383; P27958 384-746); experiment: ELISA, lectin-captured E1E2 lysate, Ab 1 ug/ml;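 note: E1E2 captured on Galanthus nivalis lectin-coated plates, bound test antibody read out by an HRP-linked secondary antibody and TMB colour development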
[12] = target: E1E2 complex (H77) with E1 mutation S327A (HCV genotype 1a, isolate H77, UniProt P27958 192-383; P27958 384-746); experiment: ELISA, lectin-captured E1E2 lysate, Ab 1 ug/ml
[13] = target: E1E2 complex (H77) with E1 mutation H222A (HCV genotype 1a, isolate H77, UniProt P27958 192-383; P27958 384-746); experiment: ELISA, lectin-captured E1E2 lysate, Ab 1 ug/ml
[14] = target: E1E2 complex (H77) with E1 mutation G315A (HCV genotype 1a, isolate H77, UniProt P27958 192-383; P27958 384-746); experiment: ELISA, lectin-captured E1E2 lysate, Ab 1 ug/ml
[15] = target: E1E2 complex (H77) with E1 mutation N196A (HCV genotype 1a, isolate H77, UniProt P27958 192-383; P27958 384-746); experiment: ELISA, lectin-captured E1E2 lysate, Ab 1 ug/ml
[16] = target: E1E2 complex (H77) with E1 mutation N305A/N209A (HCV genotype 1a, isolate H77, UniProt P27958 192-383; P27958 384-746); experiment: ELISA, lectin-captured E1E2 lysate, Ab 1 ug/ml
[17] = target: E1E2 complex (H77) with E1 mutation R339A (HCV genotype 1a, isolate H77, UniProt P27958 192-383; P27958 384-746); experiment: ELISA, lectin-captured E1E2 lysate, Ab 1 ug/ml
[18] = target: E1E2 complex (H77) with E1 mutation T292A (HCV genotype 1a, isolate H77, UniProt P27958 192-383; P27958 384-746); experiment: ELISA, lectin-captured E1E2 lysate, Ab 1 ug/ml
[19] = target: E1E2 complex (H77) with E1 mutation S294A (HCV genotype 1a, isolate H77, UniProt P27958 192-383; P27958 384-746); experiment: ELISA, lectin-captured E1E2 lysate, Ab 1 ug/ml
[20] = target: E1E2 complex (H77) with E1 mutation V227A (HCV genotype 1a, isolate H77, UniProt P27958 192-383; P27958 384-746); experiment: ELISA, lectin-captured E1E2 lysate, Ab 1 ug/ml
[21] = target: E1E2 complex (H77) with E1 mutation P244A (HCV genotype 1a, isolate H77, UniProt P27958 192-383; P27958 384-746); experiment: ELISA, lectin-captured E1E2 lysate, Ab 1 ug/ml
[22] = target: E1E2 complex (H77) with E1 mutation Y276A (HCV genotype 1a, isolate H77, UniProt P27958 192-383; P27958 384-746); experiment: ELISA, lectin-captured E1E2 lysate, Ab 1 ug/ml

Binder	% residual binding [1] [%]	% residual binding [2] [%]	% residual binding [3] [%]	% residual binding [4] [%]	% residual binding [5] [%]	% residual binding [6] [%]	% residual binding [7] [%]	further results
B1	19	12	68	62	39	77	146	
B2								Binding relative to wt (%) [8]: 51%; Binding relative to wt (%) [9]: 105%; Binding relative to wt (%) [10]: 121%; Binding relative to wt (%) [11]: 127%; Binding relative to wt (%) [12]: 69%; Binding relative to wt (%) [13]: 44%; Binding relative to wt (%) [14]: 87%; Binding relative to wt (%) [15]: 52%; Binding relative to wt (%) [16]: 17%; Binding relative to wt (%) [17]: 119%; Binding relative to wt (%) [18]: 104%; Binding relative to wt (%) [19]: 71%; Binding relative to wt (%) [20]: 98%; Binding relative to wt (%) [21]: 95%; Binding relative to wt (%) [22]: 103%
B3	18	15	56	47	33	83	131	
B4	54	53	86	84	16	76	83	
B5	91	92	82	84	17	88	85	
B6	89	80	85	79	20	95	95	
